Values belong to the binder of their own block, whether it stands above or below them.
Experiments:
Details in all cases: both partners purified
His–KPNB1 [1] = molecular target: T1, His–KPNB1 (UniProt Q14974 1-876); test: pull-down; His–KPNB1 immobilised on Ni-NTA agarose, GST fusion proteins added, 4°C overnight; washes with 20 mM sodium phosphate, 100 mM NaCl, 40 mM imidazole, 10% glycerol; SDS–PAGE and Coomassie Blue
T1 construct: KPNB1 (karyopherin β1, importin β1), full length, in a modified pET 30a vector; In the pull-down it was held on Ni-NTA by the His tag; also called full-length KPNB1; source: E. coli BL21 (DE3), purified (HisTrap HP)

His–KPNB1 [2] = molecular target: T1, His–KPNB1; test: ITC; NFAT5 fragment at 1.5–1.75 mM titrated into 50 μM full-length KPNB1; 50 mM Tris-HCl pH 8.0, 150 mM NaCl; MicroCal PEAQ-ITC
His–KPNB1 [3] = molecular target: T1, His–KPNB1; test: ITC; NFAT5_(171–253) at 600 μM titrated into 20 μM full-length KPNB1; 10 mM Na2HPO4, 1.8 mM KH2PO4, 2.7 mM KCl, pH 7.4, 150 mM NaCl; MicroCal PEAQ-ITC

T1 sequence (Q14974 whole entry, the tested form may be a part): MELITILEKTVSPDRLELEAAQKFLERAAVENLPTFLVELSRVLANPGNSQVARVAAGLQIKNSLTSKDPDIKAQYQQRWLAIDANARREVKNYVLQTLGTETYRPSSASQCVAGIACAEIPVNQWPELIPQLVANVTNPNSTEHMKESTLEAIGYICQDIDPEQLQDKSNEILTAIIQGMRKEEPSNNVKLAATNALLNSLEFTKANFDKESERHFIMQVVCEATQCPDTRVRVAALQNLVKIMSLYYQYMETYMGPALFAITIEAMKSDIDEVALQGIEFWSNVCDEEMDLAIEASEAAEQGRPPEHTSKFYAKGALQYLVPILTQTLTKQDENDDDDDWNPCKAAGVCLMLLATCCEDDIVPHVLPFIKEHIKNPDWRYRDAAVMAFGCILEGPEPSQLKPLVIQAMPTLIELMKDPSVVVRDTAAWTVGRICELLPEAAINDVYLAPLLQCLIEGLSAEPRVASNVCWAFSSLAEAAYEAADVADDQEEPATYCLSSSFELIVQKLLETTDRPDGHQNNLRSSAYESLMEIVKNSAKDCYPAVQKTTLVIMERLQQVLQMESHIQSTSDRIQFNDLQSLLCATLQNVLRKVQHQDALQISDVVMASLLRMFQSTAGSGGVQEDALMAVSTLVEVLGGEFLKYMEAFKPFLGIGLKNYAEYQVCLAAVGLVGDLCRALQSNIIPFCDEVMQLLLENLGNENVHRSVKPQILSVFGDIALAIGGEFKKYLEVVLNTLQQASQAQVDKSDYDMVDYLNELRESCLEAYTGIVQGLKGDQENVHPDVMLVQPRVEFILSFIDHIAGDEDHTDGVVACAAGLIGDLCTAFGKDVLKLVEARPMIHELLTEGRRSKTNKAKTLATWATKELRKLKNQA

binding result (His–KPNB1 [1]): binds
B1: GST–NFAT5_(171–220) (domain or fragment, UniProt O94916 171-220, looked up)
chain: SCSMWMEDSPSNFSNMSTSSYNDNTEVPRKSRKRNPKQRPGVKRRDCEES
notes: source: E. coli BL21 (DE3), purified (glutathione Sepharose); not shown: GST, N-terminal, kept

Kd (His–KPNB1 [2]): ~1500 nM
B2: NFAT5_(189–216) (domain or fragment, UniProt O94916 189-216, looked up)
chain: SSYNDNTEVPRKSRKRNPKQRPGVKRRD
notes: also called NFAT5-cNLS; source: E. coli BL21 (DE3), purified

Kd (His–KPNB1 [2]): ~1300 nM
B3: NFAT5_(151–216) (domain or fragment, UniProt O94916 151-216, looked up)
chain: LLDNSRMSCQDEGCGLESEQSCSMWMEDSPSNFSNMSTSSYNDNTEVPRKSRKRNPKQRPGVKRRD
notes: source: E. coli BL21 (DE3), purified

binding result (His–KPNB1 [1]): binds
B4: GST–NFAT5_(171–250) (domain or fragment, UniProt O94916 171-250, looked up)
chain: SCSMWMEDSPSNFSNMSTSSYNDNTEVPRKSRKRNPKQRPGVKRRDCEESNMDIFDADSAKAPHYVLSQLTTDNKGNSKA
notes: also called NFAT5-NLS; source: E. coli BL21 (DE3), purified (glutathione Sepharose); not shown: GST, N-terminal, kept

Kd (His–KPNB1 [3]): ~1200 nM
B5: NFAT5_(171–253) (domain or fragment, UniProt O94916 171-253, looked up)
chain: SCSMWMEDSPSNFSNMSTSSYNDNTEVPRKSRKRNPKQRPGVKRRDCEESNMDIFDADSAKAPHYVLSQLTTDNKGNSKAGNG
notes: as for B3

binding result (His–KPNB1 [1]): binds
B6: GST–NFAT5_(190–250) (domain or fragment, UniProt O94916 190-250, looked up)
chain: SYNDNTEVPRKSRKRNPKQRPGVKRRDCEESNMDIFDADSAKAPHYVLSQLTTDNKGNSKA
notes: NFAT5 residues 190-250, cloned at the C terminus of GST in pGEX-4T-1; source: E. coli BL21 (DE3), purified (glutathione Sepharose); not shown: GST, N-terminal, kept

— article PMC9377714, “Unconventional tonicity-regulated nuclear trafficking of NFAT5 mediated by KPNB1, XPOT and RUVBL2” (Journal of Cell Science, 2022)
